Results on three molecules are retold here after PMC7369975, “Scalable High-Performance Production of Recombinant Horseradish Peroxidase from E. coli Inclusion Bodies” (International Journal of Molecular Sciences, 2020).

The Km is the substrate concentration at which the rate is half of its maximum. For orientation: Vmax means the top rate of the reaction or transport when substrate is in excess. A word on the kcat: it is the maximal rate divided by the concentration of active sites. By kcat/Km is commonly meant the turnover number divided by the Michaelis constant.

Holding throughout (assay type): biochemical, Armoracia rusticana
The test system of data set [1] is T1, pHRP (commercial plant HRP Type VI-A).
T1 construct: gene PRXC1A; native glycosylated enzyme from horseradish root, commercial preparation, variable isoenzyme mixture, 44 kDa
Briefly: absorbance at […] nm, initial rate, 96-well plate. Particulars: 1 mM H2O2 (saturating), 50 mM phosphate-citrate, pH 5, 30 °C; ABTS 0.1-7 mM.

Data set [2] shares this test system. In words: absorbance at […] nm, initial rate, 96-well plate. The following applies: 1 mM H2O2 (saturating), 50 mM phosphate-citrate, pH 5; TMB 0.02-0.55 mM.
Substrate in data set [3]: Cc1cc(-c2cc(C)c(N)c(C)c2)cc(C)c1N
In words: purified protein. The following applies: 1 mM H2O2 (saturating), 50 mM phosphate-citrate, pH 5, TMB 0.02-0.55 mM.

`CCn1c(=NN=c2sc3cc(S(=O)(=O)O)ccc3n2CC)sc2cc(S(=O)(=O)O)ccc21` [ABTS, 2,2′-azino-bis (3-ethylbenzothiazoline-6-sulphonic acid)]: the Km in data set [1] turned out to be 700 ± 140 µM.

As for `Cc1cc(-c2cc(C)c(N)c(C)c2)cc(C)c1N` [TMB, 3,3′,5,5′-tetramethylbenzidine], in data set [2], the Km worked out at 101 ± 20 µM.

B1: rHRP (refolded recombinant HRP, variant C1A) (Armoracia rusticana) (protein)
chain: QLTPTFYDNSCPNVSNIVRDTIVNELRSDPRIAASILRLHFHDCFVNGCDASILLDNTTSFRTEKDAFGNANSARGFPVIDRMKAAVESACPRTVSCADLLTIAAQQSVTLAGGPSWRVPLGRRDSLQAFLDLANANLPAPFFTLPQLKDSFRNVGLNRSSDLVALSGGHTFGKNQCRFIMDRLYNFSNTGLPDPTLNTTYLQTLRGLCPLNGNLSALVDFDLRTPTIFDNKYYVNLEEQKGLIQSDQELFSSPNATDTIPLVRSFANSTQTFFNAFVEAMDRMGNITPLTGTQGQIRLNCRVVNSNS
As to B1, in data set [3], the Michaelis-Menten constant (Km) amounted to 105 ± 14 µM, the maximum rate (Vmax) came out at 7150 µmol/min/mg, the kcat turned out to be 4170 ± 207 s⁻¹ and the kcat/Km came out at 3.96e+07 ± 5.66e+06 M⁻¹ s⁻¹.
